The target of this experiment is Saccharomyces cerevisiae alcohol dehydrogenase (Saccharomyces cerevisiae) (UniProt P00330). Nature of the experiment: SEC + native MS.

Regarding “Saccharomyces cerevisiae alcohol dehydrogenase (from UniProt P00330 1-348) (enzyme)”, the stoichiometry N (in general, the number of molecules, sites or subunits per partner or assembly) came out at 4.
